# Measured values as given in the supplement of paper PMC5998384.
# Assays:
# [1] = tested on: HeLa Kyoto; test: melting temperature (median over replicates), in situ; higher = more thermally stable
# [2] = tested on: HeLa Kyoto; test: solubility change mitosis vs G1/S (difference of NP-40 vs SDS log2 ratios) (log2 ratio difference); higher = more soluble in mitosis
# [3] = tested on: HeLa Kyoto; test: thermal stability score vs G1/S (z-score of summed log2 fold changes over temperatures); higher = more thermally stable than in G1/S
# [4] = tested on: HeLa Kyoto; test: solubility in G1/S (NP-40 vs SDS abundance) (log2 ratio); higher = more soluble; details: cell cycle stage: G1/S
# [5] = cell cycle stage: early G1 (4.5 h after nocodazole release)
# 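For melting temperature (median over replicates), in situ in this document: HeLa Kyoto cells synchronized by double thymidine or nocodazole block, proteins quantified by TMT10plex mass spectrometry, three independent biological replicates.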
# 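For solubility change mitosis vs G1/S (difference of NP-40 vs SDS log2 ratios) in this document: synchronized HeLa Kyoto cells (double thymidine block for G1/S, nocodazole release for mitosis), protein amounts in NP-40 versus SDS lysates quantified by mass spectrometry, three biological replicates.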
# 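For solubility in G1/S (NP-40 vs SDS abundance) in this document: HeLa Kyoto cells arrested at G1/S by double thymidine block, proteins quantified by TMT10plex mass spectrometry in mild NP-40 versus SDS extracts, three biological replicates.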
# 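For thermal stability score vs G1/S (z-score of summed log2 fold changes over temperatures) in this document: synchronized HeLa Kyoto cells, proteins quantified by TMT10plex mass spectrometry, three biological replicates, mitosis taken 0.5 h after nocodazole release, G1/S directly after double thymidine block.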
Sequence,melting temperature ([1]; cell cycle stage: G1/S) [°C],melting temperature ([1]; cell cycle stage: mitosis) [°C],solubility change mitosis (log2) [2],"thermal stability score [3, 5]",thermal stability score ([3]; cell cycle stage: mitosis),solubility in G1/S (log2) [4]
MVSRVQLPPEIQLAQRLAGNEQVTRDRAVRKLRKYIVARTQRAAGGFTHDELLKVWKGLFYCMWMQDKPLLQEELGRTISQLVHAFQTTEAQHLFLQAFWQTMNREWTGIDRLRLDKFYMLMRMVLNESLKVLKMQGWEERQIEELLELLMTEILHPSSQAPNGVKSHFIEIFLEELTKVGAEELTADQNLKFIDPFCRIAARTKDSLVLNNITRGIFETIVEQAPLAIEDLLNELDTQDEEVASDSDESSEGGERGDALSQKRSEKPPAGSICRAEPEAGEEQAGDDRDSGGPVLQFDYEAVANRLFEMASRQSTPSQNRKRLYKVIRKLQDLAGGIFPEDEIPEKACRRLLEGRRQKKTKKQKRLLRLQQERGKGEKEPPSPGMERKRSRRRGVGADPEARAEAGEQPGTAERALLRDQPRGRGQRGARQRRRTPRPLTSARAKAANVQEPEKKKKRRE [RRP1],46.6,48.8,0.797,2.67,7.98,-1.24
MVSWMICRLVVLVFGMLCPAYASYKAVKTKNIREYVRWMMYWIVFALFMAAEIVTDIFISWFPFYYEIKMAFVLWLLSPYTKGASLLYRKFVHPSLSRHEKEIDAYIVQAKERSYETVLSFGKRGLNIAASAAVQAATKSQGALAGRLRSFSMQDLRSISDAPAPAYHDPLYLEDQVSHRRPPIGYRAGGLQDSDTEDECWSDTEAVPRAPARPREKPLIRSQSLRVVKRKPPVREGTSRSLKVRTRKKTVPSDVDS [REEP4],53.4,53.2,-0.135,-1.06,-1.58,0.0372
MVSWMISRAVVLVFGMLYPAYYSYKAVKTKNVKEYVRWMMYWIVFALYTVIETVADQTVAWFPLYYELKIAFVIWLLSPYTKGASLIYRKFLHPLLSSKEREIDDYIVQAKERGYETMVNFGRQGLNLAATAAVTAAVKSQGAITERLRSFSMHDLTTIQGDEPVGQRPYQPLPEAKKKSKPAPSESAGYGIPLKDGDEKTDEEAEGPYSDNEMLTHKGLRRSQSMKSVKTTKGRKEVRYGSLKYKVKKRPQVYF [REEP3],52.8,54.9,-0.0257,-1.24,-0.732,-0.258
MVVFVGRRLPALLGLFKKKGSAKAENDKHLSVGPGQGPGSAVDEHQDNVFFPSGRPPHLEELHTQAQEGLRSLQHQEKQKLNKGGWDHGDTQSIQSSRTGPDEDNISFCSQTTSYVAESSTAEDALSIRSEMIQRKGSTFRPHDSFPKSGKSGRRRRERRSTVLGLPQHVQKELGLRNEREAPGTPRAPGARDAVRIPTVDGRPRGTSGMGARVSLQALEAEAEAGAETEAMLQRHIDRVYRDDTFVGRSTGTRAPPLTRPMSLAVPGLTGGAGPAEPLSPAMSISPQATYLSKLIPHAVLPPTVDVVALGRCSLRTLSRCSLHSASPASVRSLGRFSSVSSPQPRSRHPSSSSDTWSHSQSSDTIVSDGSTLSSKGGSEGQPESSTASNSVVPPPQGGSGRGSPSGGSTAEASDTLSIRSSGQLSGRSVSLRKLKRPPPPPRRTHSLHQRGLAVPDGPLGLPPKPERKQQPQLPRPPTTGGSEGAGAAPCPPNPANSWVPGLSPGGSRRPPRSPERTLSPSSGYSSQSGTPTLPPKGLAGPPASPGKAQPPKPERVTSLRSPGASVSSSLTSLCSSSSDPAPSDRSGPQILTPLGDRFVIPPHPKVPAPFSPPPSKPRSPNPAAPALAAPAVVPGPVSTTDASPQSPPTPQTTLTPLQESPVISKDQSPPPSPPPSYHPPPPPTKKPEVVVEAPSASETAEEPLQDPNWPPPPPPAPEEQDLSMADFPPPEEAFFSVASPEPAGPSGSPELVSSPAASSSSATALQIQPPGSPDPPPAPPAPAPASSAPGHVAKLPQKEPVGCSKGGGPPREDVGAPLVTPSLLQMVRLRSVGAPGGAPTPALGPSAPQKPLRRALSGRASPVPAPSSGLHAAVRLKACSLAASEGLSSAQPNGPPEAEPRPPQSPASTASFIFSKGSRKLQLERPVSPETQADLQRNLVAELRSISEQRPPQAPKKSPKAPPPVARKPSVGVPPPASPSYPRAEPLTAPPTNGLPHTQDRTKRELAENGGVLQLVGPEEKMGLPGSDSQKELA [KIAA1522],52,52.4,-0.199,0.117,0.588,0.188
MVVLSVPAEVTVILLDIEGTTTPIAFVKDILFPYIEENVKEYLQTHWEEEECQQDVSLLRKQAEEDAHLDGAVPIPAASGNGVDDLQQMIQAVVDNVCWQMSLDRKTTALKQLQGHMWRAAFTAGRMKAEFFADVVPAVRKWREAGMKVYIYSSGSVEAQKLLFGHSTEGDILELVDGHFDTKIGHKVESESYRKIADSIGCSTNNILFLTDVTREASAAEEADVHVAVVVRPGNAGLTDDEKTYYSLITSFSELYLPSST [ENOPH1],50.6,50.7,-0.175,2.1,3.35,0.267
